Assays:
[1] = ATPase activity, Pi release with acid-molybdate; format: biochemical; conditions: 1 mM ATP as substrate
Description: IDE activity was determined by measuring the increase in fluorescence that occurs when the enzyme cleaves the internally quenched fluorogenic substrate Abz-[…]-EDDnp (SEQ ID NO:3) at the R—K bond (Song et al., Journal of Biologial Chemistry 276, 1152-1155 (2001)). The reaction was followed on a SpectraMax Gemini XS fluorescence plate reader using an excitation and emission wavelengths of 318 nm and 419 nm, respectively. Initial velocities were determined using SoftMax Pro 4.0 and kinetic constants calculated using GraphPad Prism 4.0. ATPase activity was measured by following Pi release with acid-molybdate as described by Harder et al. (Harder et al., Biochemical Journal 298 (Pt 2), 395-401 (1994)).

Saccharomyces cerevisiae = experiment: IDE activity assay in yeast, serial dilution mating test; format: cell-based; conditions: MATa cells deficient for Axl1p and Ste23p, plasmid-encoded IDE
Description: Panel A depicts immunoblot of yeast-expressed IDE and IDE^K898A,K899A,S901A. Equivalent percentage amounts of total cellular extracts from yeast containing an empty expression vector or plasmids encoding IDE or the IDE^K898A,K899A,S901A mutant were analyzed by SDS-PAGE and immunoblotting using an IDE-specific antibody. […] An excess of MATa yeast were mixed with decreasing numbers of MATa cells deficient for Axl1p and Step 23p that were transformed with either an empty expression vector or a vector encoding IDE or IDE^K898A,K899A,S901A as indicated. Mating, which leads to colony growth, is dependent on production of mature a-factor pheromone by plasmid-encoded IDE. […] Concentrated samples of a-factor recovered from yeast bearing the indicated expression vector were spotted at the indicated dilutions on a lawn of RC757 MATa cells, which undergo growth arrest upon exposure to a-factor pheromone. […]
The assays take advantage of the ability of IDE, in lieu of the yeast M16 metallopeptidases Axl1p and Step 23p, to participate in the proteolytic maturation of yeast a-factor mating pheromone. […] Growth of diploid colonies, indicative of mating, was scored 3 days after incubation of plates at 30° C. […] Results of mating tests and halo assays were recorded by scanning plates with a Microtek flatbed scanner and importing digitized images into Photoshop and PowerPoint.

B1: IDE: Native rat insulin degrading enzyme (SEQ ID NO:1), expressed as hexahistidine fusion protein in Sf9 insect cells (protein, listed as Rattus norvegicus)
chain: MRNGLVWLLHPALPSTLHSILGARPPPVKRLCGFPKQIYSTMNNPAIQRIEDHIVKSPEDKREYRGLELANGIKVLLISDPTTDKSSAALDVHIGSLSDPPNIPGLSHFCEHMLFLGTKKYPKENEYSQFLSEHAGSSNAFTSGEHTNYYFDVSHEHLEGALDRFAQFFLCPLFDASCKDREVNAVDSEHEKNVMNDAWRLFQLEKATGNPKHPFSKFGTGNKYTLETRPNQEGIDVREELLKFHSTYYSSNLMAICVLGRESLDDLTNLVVKLFSEVENKNVPLPEFPEHPFQEEHLKQLYKIVPIKDIRNLYVTFPIPDLQQYYKSNPGHYLGHLIGHEGPGSLLSELKSKGWVNTLVGGQKEGARGFMFFIINVDLTEEGLLHVEDIILHMFQYIQKLRAEGPQEWVFQECKDLNAVAFRFKDKERPRGYTSKIAGKLHYYPLNGVLTAEYLLEEFRPDLIDMVLDKLRPENVRVAIVSKSFEGKTDRTEQWYGTQYKQEAIPEDVIQKWQNADLNGKFKLPTKNEFIPTNFEILALEKDATPYPALIKDTAMSKLWFKQDDKFFLPKACLNFEFFSPFAYVDPLHCNMAYLYLELLKDSLNEYAYAAELAGLSYDLQNTIYGMYLSVKGYNDKQPILLKKITEKMATFEIDKKRFEIIKEAYMRSLNNFRAEQPHQHAMYYLRLLMTEVAWTKDELKEALDDVTLPRLKAFIPQLLSRLHIEALLHGNITKQAALGVMQMVEDTLIEHAHTKPLLPSQLVRYREVQLPDRGWFVYQRRNEVHNNCGIEIYYQTDMQSTSENMFLELFCQIISEPCFNTLRTKEQLGYIVFSGPRRANGIQGLRFIIQSEKPPHYLESRVEAFLITMEKAIEDMTEEAFQKHIQALAIRRLDKPKKLSAECAKYWGEIISQQYNYDRDNIEVAYLKTLSKDDIIKFYKEMLAVDAPRRHKVSVHVLAREMDSCPVVGEFPSQNDINLSEAPPLPQPEVIHNMTEFKRGLPLFPLVKPHINFMAAKL
modifications: hexahistidine tag; wild-type Insulin Degrading Enzyme (IDE) from rat
IDE-dependent ATPase activity [1]: less than 1 nmol/min/mg IDE | mating promoted in yeast (Saccharomyces cerevisiae): promoted mating to a greater extent
